Test results as given in article PMC6937562, “Combining SPR with atomic-force microscopy enables single-molecule insights into activation and suppression of the complement cascade” (The Journal of Biological Chemistry, 2019).

Legend:
Conditions in all cases: both partners purified
C3b [1] = target: T1, C3b (human, UniProt P01024 23-667; P01024 749-1663); assay: SPR; C1 chip, 144 RU C3b amine-coupled; FH flowed (2 μM to 7.8 nM, 2-fold series, duplicates); Biacore T200, 25 °C, HBS-P pH 7.4, 150 mM NaCl, 1 mM MgCl2; 1:1 steady-state model
T1 construct: complement C3 beta chain, human; Immobilised by amine coupling, via the nascent thioester (physiological) or via the free thiol of hydrolysed C3b; the way is told in each assay's format; also called C3b(H2O); C3b-SH; source: bought: Complement Technologies, Inc. (human plasma-derived)

C3b [2] = target: T1, C3b; assay: SPR; C1 chip, 196 RU C3b immobilised physiologically (seed C3b, then seven cycles of FB+FD and C3); FH flowed (2 μM to 7.8 nM); Biacore T200, 25 °C, HBS-P pH 7.4; 1:1 steady-state model
C3b [3] = target: T1, C3b; assay: SPR; homemade HJEM7 chip, 143 RU C3b amine-coupled and 174 RU 3′-sialyllactose clicked on; FH (2 μM to 3.9 nM) or FH 19–20 (10 μM to 3.9 nM) flowed; Biacore T200, 25 °C, HBS-P pH 7.4; 1:1 steady-state model
C3b [4] = target: T1, C3b; assay: SPR; homemade HJEM4 chip with maleimide groups, 240 RU hydrolyzed C3b coupled via its free thiol; FH flowed (2 μM to 3.9 nM); Biacore T200, 25 °C, HBS-P pH 7.4; 1:1 steady-state model
C3b [5] = target: T1, C3b; assay: SPR; homemade HJEM2 chip (1% COOH, 99% OH), 313 RU C3b amine-coupled; FH flowed (2 μM to 3.9 nM); Biacore T200, 25 °C, HBS-P pH 7.4; 1:1 steady-state model
C3b [6] = target: T1, C3b; assay: SPR; homemade HJEM7 chip (50% OH, 25% COOH, 25% propargyl), 144 RU C3b amine-coupled; FH (2 μM to 3.9 nM) or FH 19–20 (10 μM to 3.9 nM) flowed; Biacore T200, 25 °C, HBS-P pH 7.4; 1:1 steady-state model

B1: factor H (natural protein, human, UniProt P08603 19-1231, looked up)
chain: EDCNELPPRRNTEILTGSWSDQTYPEGTQAIYKCRPGYRSLGNVIMVCRKGEWVALNPLRKCQKRPCGHPGDTPFGTFTLTGGNVFEYGVKAVYTCNEGYQLLGEINYRECDTDGWTNDIPICEVVKCLPVTAPENGKIVSSAMEPDREYHFGQAVRFVCNSGYKIEGDEEMHCSDDGFWSKEKPKCVEISCKSPDVINGSPISQKIIYKENERFQYKCNMGYEYSERGDAVCTESGWRPLPSCEEKSCDNPYIPNGDYSPLRIKHRTGDEITYQCRNGFYPATRGNTAKCTSTGWIPAPRCTLKPCDYPDIKHGGLYHENMRRPYFPVAVGKYYSYYCDEHFETPSGSYWDHIHCTQDGWSPAVPCLRKCYFPYLENGYNQNYGRKFVQGKSIDVACHPGYALPKAQTTVTCMENGWSPTPRCIRVKTCSKSSIDIENGFISESQYTYALKEKAKYQCKLGYVTADGETSGSITCGKDGWSAQPTCIKSCDIPVFMNARTKNDFTWFKLNDTLDYECHDGYESNTGSTTGSIVCGYNGWSDLPICYERECELPKIDVHLVPDRKKDQYKVGEVLKFSCKPGFTIVGPNSVQCYHFGLSPDLPICKEQVQSCGPPPELLNGNVKEKTKEEYGHSEVVEYYCNPRFLMKGPNKIQCVDGEWTTLPVCIVEESTCGDIPELEHGWAQLSSPPYYYGDSVEFNCSESFTMIGHRSITCIHGVWTQLPQCVAIDKLKKCKSSNLIILEEHLKNKKEFDHNSNIRYRCRGKEGWIHTVCINGRWDPEVNCSMAQIQLCPPPPQIPNSHNMTTTLNYRDGEKVSVLCQENYLIQEGEEITCKDGRWQSIPLCVEKIPCSQPPQIEHGTINSSRSSQESYAHGTKLSYTCEGGFRISEENETTCYMGKWSSPPQCEGLPCKSPPEISHGVVAHMSDSYQYGEEVTYKCFEGFGIDGPAIAKCLGEKWSHPPSCIKTDCLSLPSFENAIPMGEKKDVYKAGEQVTYTCATYYKMDGASNVTCINSRWTGRPTCRDTSCVNPPTVQNAYIVSRQMSKYPSGERVRYQCRSPYEMFGDEEVMCLNGNWTEPPQCKDSTGKCGPPPPIDNGDITSFPLSVYAPASSVEYQCQNLYQLEGNKRITCRNGQWSEPPKCLHPCVISREIMENYNIALRWTAKQKLYSRTGESVEFVCKRGYRLSSRSHTLRTTCWDGKLEYPTCAKR
notes: complement factor H, human, 155-kDa serum glycoprotein of 20 CCP modules; Free FH: flowed as analyte in SPR, or amine-coupled directly to the AFM tip; also called FH; CFH; source: isolated from human plasma (TCS Biosciences Ltd.)
Question: How did the Kd (C3b [1]) turn out when B1 was run?
Answer: The Kd was 230 nM.

Question: What about the Kd (C3b [2]) of the same binder?
Answer: Its Kd is 130 nM.

Question: And the Kd (C3b [3])?
Answer: The Kd was 90 nM.

Question: And the Kd (C3b [4])?
Answer: The Kd was 180 nM.

Question: What about the Kd (C3b [5]) of the same binder?
Answer: The Kd was 50 nM.

Question: What about the Kd (C3b [6]) of the same binder?
Answer: Its Kd is 70 nM.
